In PMC4583294 one finds inhibition of HMGB1-mediated DNA bending (ligase-mediated circularization of a 123-bp DNA; 50 nM reduced HMGB1, 1-15 nM H1) and inhibition of HMGB1ΔC-mediated DNA bending (ligase-mediated circularization of a 123-bp DNA; 50 nM reduced HMGB1ΔC, 1-15 nM H1) data, which are given here for one substance.

Experiment [1] concerns the target HMGB1 protein, wild-type, reduced (residues 1-214) (rat).
Experiment [2] deals with HMGB1 lacking the acidic C-tail (HMGB1ΔC, residues 1-185) (rat).
Sequence of HMGB1 lacking the acidic C-tail (HMGB1ΔC, residues 1-185) (rat) (P09429 1-185, stated change not applied): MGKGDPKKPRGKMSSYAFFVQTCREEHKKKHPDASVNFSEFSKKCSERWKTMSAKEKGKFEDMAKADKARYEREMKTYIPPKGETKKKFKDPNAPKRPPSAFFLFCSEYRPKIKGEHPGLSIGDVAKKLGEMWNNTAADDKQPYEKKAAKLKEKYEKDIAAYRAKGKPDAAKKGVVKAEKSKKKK

Take “Recombinant mouse histone H1° (referred to as histone H1) (from UniProt P10922 1-194) (natural protein)”: the inhibition of HMGB1-mediated DNA bending (ligase-mediated circularization of a 123-bp DNA; 50 nM reduced HMGB1, 1-15 nM H1) in experiment [1] was 90%. In addition, the inhibition of HMGB1ΔC-mediated DNA bending (ligase-mediated circularization of a 123-bp DNA; 50 nM reduced HMGB1ΔC, 1-15 nM H1) in experiment [2] was found to be 40%.
